Source: patent US20250376505A1
Where a chain is given by its changes, count along the chain named.

B1: B10P1 (antibody, V domains shown)
VH: EVQLSESGGGLVQPGGSLRLSCAASGFTFSSYAMSWVRQAPGKGLEWVSSLTGSGGSTYYRDSVKGRFTIFRDNSKKTLYMQMNSLRAEDTAVYYCAKEGAYSYDFWYFDLWGRGTLVTVSS
VL: EIVLTQSPGTLSLSPGERATLSCRASQTVSGNYLAWYQQKPGQSPSLLIYGASSRATGIPDRFTGSGSGTDFTLTISRLEPADFAVYYCQQYGRPLTFGGGTKVDIK
B2: C4P7 (antibody, V domains shown)
VH: B1 VH with S5L
VL: B1 VL with D105E
B3: D7P6 (antibody, V domains shown)
VH: EVQLLESGGGLVQPGGSLRLSCAASGFPFSSYAMSWVRQAPGKGLEWVSGITGSASGTYYADSVKGRFTISRDNSKNTLYLRMNSLRAEDTAVYYCAKEGAYSYDYWYFDLWGRGTLVTVSS
VL: EIVLTQSPGTLSLSPGERATLSCRASQSVSGSYLAWYQQKPGQTPRLLIYGASSRATGIPDRFSGSGSGTDFTLTINRLDPEDFGVYYCQQYGSLVTFGGGSKVEIK
B4: B8P7 (antibody, V domains shown)
VH: QVQLQESGPGLVRPSETLSLTCTVSGGSISPYYWNWIRQPPGKGLEWIGYIYYSGNTKYNPSLKSRVTISVDTSKNQFSLKLSSVSAADTAVYYCARDSCSGTCYLGDNWFDPWGQGTLVTVSS
VL: QSVLTQPPSVSGAPGQRVTISCTGSSSNIGANNDVHWYQHLPGTAPKLLIYGNNHRPSGVPDRFSGSKSGTSASLAITGLQAEDEADYYCQSYDSSLSTSKVFGGGTKLTVL
B5: C4P6 (antibody, V domains shown)
VH: B4 VH with D108G
VL: B4 VL
B6: G5P1 (antibody, V domains shown)
VH: QVQLQESGPGLVKPSGTLSLTCTVSGGSIRNSYWSWIRQPPGKGLEWIGYIYYTGTTNSNPSLKSRVTISVHMSRNQISLKLNSVTPADTAVYYCAQGGGSGDLHYWGQGTLVTVSS
VL: NFMLTQPASVSGSPGQSITISCTGTRSDVGGYNYVSWYQQHPGKAPKLMIYDISSRPSGVSNRFSASKSGNTASLTISGLQAEDEADYYCISFATGYTWVFGGGTRLTVL
B7: E7P5 (antibody, V domains shown)
VH: B6 VH with G16E, P40S, T56S, V67L, I69V, R75Q
VL: B6 VL with N1Q, F2S, M3A, M49I, R106S
B8: B9P6 (antibody, V domains shown)
VH: EVQLVESGGGLVQPGGSLRLSCAASGFTFRSYTMDWVRQAPGKGLEWVSCISGSSNHKYYADSVRGRFTISRDNAKNSLFLQMNSLRAEDSAVYYCAREDDILTPLYGMDVWGPGTTVTVSS
VL: EIVLTQSPDTLSLSPGARATLSCRASQSVRSNYLAWYQQKPGQAPRLLIYGASSRATAIPDRFSGSGSGTDFTLTITRLEPEDFAVYYCHQYGSSPRTFGQGTKVEIK
B9: G11P1 (antibody, V domains shown)
VH: B8 VH with T33S, C50Y, H57Q, A61T
VL: B8 VL with G93A
B10: E11P6 (antibody, V domains shown)
VH: B8 VH with T33S, C50Y, H57Q, A61T
VL: B8 VL with F72L, G93A
B11: B2P8 (antibody, V domains shown)
VH: B6 VH with G16E, R75Q
VL: B8 VL with G93A
B12: C11P7 (antibody, V domains shown)
VH: EVQLVESGGGLVQPGGSLKLSCAASGFSLSNSEVHWVRQASGKGLEWIGRVRSRANRHATGYTESVNGRFTVSRDDSKNTASLQLESLKIEDTAVYYCTGVRGVISRYFAMDVWGQGTTVTVSS
VL: QSALTQPASVSGSPGQSITISCTGTSSDVGAYNYVSWYRLRPGKDPHLIIYDVSHRPAGVSNRFSGSKSGNTASLTISGLQAEDEDEYYCCSYAHRGTPLFGGGTKLTVL

Molecular target: VP1 pentamer of BKV genotype I (truncated VP1, residues 31 to 301, Dunlop sequence with Cys 104 replaced by Ser) (BK virus genotype I (Dunlop)) (UniProt P03088)
Sequence (P03088 31-301): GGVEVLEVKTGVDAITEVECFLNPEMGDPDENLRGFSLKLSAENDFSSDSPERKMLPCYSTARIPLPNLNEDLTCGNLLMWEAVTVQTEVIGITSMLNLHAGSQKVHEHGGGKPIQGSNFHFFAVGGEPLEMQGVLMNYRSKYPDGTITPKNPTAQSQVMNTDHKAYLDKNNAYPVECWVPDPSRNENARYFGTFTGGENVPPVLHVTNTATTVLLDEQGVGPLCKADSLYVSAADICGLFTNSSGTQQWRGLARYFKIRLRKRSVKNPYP
Assay: ELISA, coated VP1 pentamer

| Binder | EC50 [µg/mL] |
| --- | --- |
| B1 | 7 |
| B2 | 5 |
| B3 | 6 |
| B4 | 0.05 |
| B5 | 1.5 |
| B6 | 7 |
| B7 | 0.15 |
| B8 | 0.12 |
| B9 | 0.7 |
| B10 | 0.6 |
| B11 | 10 |
| B12 | 6 |
